Substitutions are numbered along the chain they refer to. Names and notes keep the numbering of the source.
Tests used:
NCP147 = experiment: FRET, LexA titration into Cy3-Cy5 labeled NCP147; assay type: binding; details: mean of n = 3
Method: Histone octamers unlabeled or labeled with Cy5 at H2AK119 were prepared as previously described. NCPs were reconstituted by combining octamer with 1.25× excess DNA and performing slow salt dialysis. Free DNA was then separated from fully reconstituted NCPs by sucrose gradient purification. NCPs for fluorescence polarization assays were reconstituted from unlabeled octamer and 207 bp DNA containing the 601 Widom sequence flanked with a 30 bp linker on either side and internally labeled with Fluorescein 27 bp in from the 5′ end. Cy3-Cy5 labeled NCPs for FRET assays were reconstituted with Cy5 labeled octamer plus either 147 bp 601 Widom DNA containing a LexA transcription factor binding site at bases 8–27[34], or 252 bp DNA containing the 601 Widom sequence with a 75 bp linker at the 3′ end, a 30 bp linker at the 5’ end, and a Gal4 transcription factor binding site at bases 8–26 in the 601 Widom sequence. The 147 bp LexA-binding DNA was labeled with Cy3 on the 5′ end, and the 252 bp Gal4-binding DNA was internally labeled with Cy3 34 bp in from the 5′ end.
LexA was expressed in E. coli, separated from genomic DNA and the proteome by polyethyleneimine precipitation, and salted out with ammonium sulfate. LexA was resuspended in buffer A (20 mM potassium phosphate pH 7, 0.1 mM EDTA, 10% glycerol, 1 mM DTT) + 200 mM NaCl and purified by a linear gradient to A + 800 mM NaCl over either a cellulose phosphate or HiTrap Heparin HP column. […]
Cy3-Cy5 NCP FRET efficiency measurements were carried out on a Horiba Scientific Fluoromax 4. […] LexA titrations were carried out in 20 mM Tris pH 7.5, 75 mM NaCl, 10% glycerol, 0.00625% Tween 20 buffer with 5 nM 147 bp Cy3-Cy5 NCPs mixed in 20 µL reaction volumes and allowed to incubate for 5 mins at 4 °C before FRET of the sample was measured. […] Gal4 (1–147) titrations were carried out in 10 mM Tris pH 8, 130 mM NaCl, 10% glycerol, 0.0075% Tween 20 buffer with 1 nM 252 bp Cy3-Cy5 nucleosomes mixed in 60 µL reaction volumes and allowed to incubate for 10 mins at room temperature before FRET of the sample was measured. […]

HEK293T cells [1] = experiment: Cell cycle analysis by flow cytometry; assay type: cell-based; details: for effect on S phase (words): 48-h overexpression, vs control cells; for percent of cells in S phase: 48-h overexpression of mCherry-tagged protein, EdU/PI, average of three independent experiments, control 34.5%
Method: For DNA content analysis, 10^6 cells previously transfected with mCherry MORC4 constructs and labeled with 25 µM Ethynyl deoxyUridine (EdU) for 1 h in 100 µL were washed with PBS (NaCl 137 mM, KCl 2.7 mM, Na2HPO4 10 mM, KH2PO4 1.8 mM) and fixed in ice cold 70% ethanol overnight. Fixed cells were washed and resuspended in PBS containing 0.05% NP40 and incubated at room temperature for 30 min. Cells were again washed with PBS. Cells were resuspended in Alexa Fluor 647 click staining solution (100 mM Tris pH 7.6, 4 mM CuSO4, 3 µM AF647 azide, 100 mM Sodium Ascorbate) for 1 h. Following staining, cells were washed with PBS and then stained for total DNA content using 10 μg/mL propidium iodide (PI) and 0.2 mg/ml RNase A for 60 min before analysis on a FACScan instrument. Data were analyzed using FlowJo (Version 10) with cells gated to remove doublets. EdU vs PI plots were gated in quadrants to identify G1, early S, late S and G2/M cells. S phase fractions were summed for total S phase population. […]

MORC4 CW domain = target: T1, MORC4 CW domain (Homo sapiens, UniProt Q8TE76); experiment: 1H,15N HSQC NMR titration of MORC4 CW; assay type: binding; details: Supplementary Fig. 12
T1 construct: The CW domain (aa 417–475) of MORC4 was cloned into a pGEX 6p-1 vector; GST (N, cleaved yes); made in house; host or cells: E. coli Rosetta2 (DE3) pLysS or BL21 (DE3) RIL
T1 sequence (Q8TE76 417-475): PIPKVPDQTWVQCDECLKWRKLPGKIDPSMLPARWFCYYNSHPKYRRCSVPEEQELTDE
Method: NMR experiments were carried out at 298 K on a Varian INOVA 600 and 900 MHz spectrometers. His-tagged MORC4 ATPase (1–411) was expressed and purified as described above and used without cleavage of the tag. NMR samples contained 0.1 mM uniformly ^15N-labeled WT or mutated CW in 20 mM Tris-HCl (pH 7) buffer supplemented with 100 mM NaCl, 5 mM DTT, and 10% D2O. Binding was characterized by monitoring CSPs in the proteins induced by H3 peptides or the ATPase domain. For the CWKRR mutant, NMR experiments were performed in 20 mM Tris-HCl (pH 6.8) buffer supplemented with 150 mM NaCl, 2 mM DTT, and 10% D2O.

HEK293T cells [2] = experiment: MORC4 localization and nuclear bodies (confocal microscopy); assay type: cell-based; details: live cells, confocal microscopy, 48 h post transfection
Method: WT mCherry-MORC4, mCherry-MORC4 E56A, mCherry-MORC4 W435A, mCherry-MORC4 E56A/W435A, mCherry-MORC4 K460A/R462A/R463A, or mCherry control plasmid were transfected into 2 million 293T-HEK cells seeded on 25 mm circular coverslips (Carolina Biological Supply Item#: 633057) in 10-cm-diameter tissue culture dish by Lipofectamine 3000 (Life Technology, L3000-075) following the manufacturer’s instructions. Two days after transfection, cells were stained with Hoechst […] for 30 min and imaged live on a ZeissAxiovert 200 M inverted microscope fitted with a ×40 oil objective. Images were acquired with Slidebook 6 software and exported for analysis in Image J.
mCherry foci sizes were calculated using ImageJ image processing program (version 1.51) using the Analyze Particle tool. mCherry particle sizes were collected for MORC4 WT and MORC4 W435A transfected cells. Data were plotted with R (version 3.4.1) using ggplot2 (version 3.2.1). Cell size and mCherry foci count per cell were calculated using CellProfile cell image analysis software (version 3.1.5) to identify nuclei and mCherry foci, relate mCherry foci to nuclei containing them and measure the size of nuclei and number mCherry foci contained. Data were plotted with R (version 3.4.1) using ggplot2 (version 3.2.1).

B1: LexA: transcription factor LexA, expressed in E. coli (protein, UniProt P0A7C2 1-202, looked up)
LexA repressor: MKALTARQQEVFDLIRDHISQTGMPPTRAEIAQRLGFRSPNAAEEHLKALARKGVIEIVSGASRGIRLLQEEEEGLPLVGRVAAGEPLLAQQHIEGHYQVDPSLFKPNADFLLRVSGMSMKDIGIMDGDLLAVHKTQDVRNGQVVVARIDDEVTVKRLKKQGNKVELLPENSEFKPIVVDLRQQSFTIEGLAVGVIRNGDWL
S1/2 (NCP147; +1 μM MORC4 ATPaseCW): 2.4 ± 0.4 µM | S1/2 (NCP147; without MORC4, 5 nM NCP147, pH 7.5, 75 mM NaCl, 4 °C, 5 min): 0.9 ± 0.2 µM

B2: MORC4 K460A/R462A/R463A: mCherry-tagged MORC4 triple mutant with disrupted DNA-binding activity of CW (protein, UniProt Q8TE76 1-937, looked up, variant K460A R462A R463A)
MORC family CW-type zinc …: MLLYRGAPAGPGAPGCGLARPGGGPQAFGIRLSTMSPRYLQSNSSSHTRPFSAIAELLDNAVDPDVSARTVFIDVEEVKNKSCLTFTDDGCGMTPHKLHRMLSFGFTDKVIKKSQCPIGVFGNGFKSGSMRLGKDALVFTKNGGTLTVGLLSQTYLECVQAQAVIVPIVPFNQQNKKMIITEDSLPSLEAILNYSIFNRENDLLAQFDAIPGKKGTRVLIWNIRRNKNGKSELDFDTDQYDILVSDFDTEEKMTGGVTSELPETEYSLRAFCGILYMKPRMKIFLRQKKVTTQMIAKSLANVEYDTYKPTFTNKQVRITFGFSCKNSNQFGIMMYHNNRLIKSFEKVGCQVKPTRGEGVGVIGVIECNFLKPAYNKQDFEYTKEYRLTINALAQKLNAYWKEKTSQDNFETSTVARPIPKVPDQTWVQCDECLKWRKLPGKIDPSMLPARWFCYYNSHPAYAACSVPEEQELTDEDLCLSKAKKQEQTVEEKKKMPMENENHQVFSNPPKILTVQEMAGLNNKTIGYEGIHSPSVLPSGGEESRSPSLQLKPLDSSVLQFSSKYKWILGEEPVEKRRRLQNEMTTPSLDYSMPAPYRRVEAPVAYPEGENSHDKSSSERSTPPYLFPEYPEASKNTGQNREVSILYPGAKDQRQGSLLPEELEDQMPRLVAEESNRGSTTINKEEVNKGPFVAVVGVAKGVRDSGAPIQLIPFNREELAERRKAVESWNPVPYSVASAAIPAAAIGEKARGYEESEGHNTPKLKNQRELEELKRTTEKLERVLAERNLFQQKVEELEQERNHWQSEFKKVQHELVIYSTQEAEGLYWSKKHMGYRQAEFQILKAELERTKEEKQELKEKLKETETHLEMLQKAQVSYRTPEGDDLERALAKLTRLRIHVSYLLTSVLPHLELREIGYDSEQVDGILYTVLEANHILD
modifications: mCherry tag
effect on S phase (words) (HEK293T cells [1]): increased percent of cells in S phase | effect on S phase (words) (HEK293T cells [1]; listed as K460A/R462A/R463A): no significant effect was observed

B3: E56A/W435A: dual mutant of mCherry-tagged MORC4 (protein, UniProt Q8TE76 1-937, looked up, variant E56A W435A)
chain: B2 MORC family CW-type zinc … with E56A, W435A, A460K, A462R, A463R
modifications: full-length mCherry tag
notes: dual mutant of mCherry-tagged MORC4
percent of cells in S phase (HEK293T cells [1]): 35.8%

B4: MORC4 W435A: mCherry-tagged full-length MORC4 W435A mutant, in which the structure of the CW domain is disrupted (protein, UniProt Q8TE76 1-937, looked up, variant W435A)
chain: B2 MORC family CW-type zinc … with W435A, A460K, A462R, A463R
modifications: full-length mCherry tag
percent of cells in S phase (HEK293T cells [1]): 36.5% | structure of the CW domain (MORC4 CW domain): the structure of the CW domain is disrupted | subcellular localization (HEK293T cells [2]): dispersed throughout the cell

Reference: publication PMC7596504, “Molecular mechanism of the MORC4 ATPase activation” (Nature Communications, 2020)
